Patent US20200308277A1

How the values were obtained:
huTIM-3/his (human) [1] = biological target: huTIM-3/his (human) (UniProt Q8TDQ0); assay: SPR (Biacore) competition, hTIM-3/his captured by anti-His antibody; 1st antibody injection
huTIM-3/his (human) [2] = biological target: huTIM-3/his (human) (UniProt Q8TDQ0); assay: SPR (Biacore) competition; 2nd antibody injection after 1st antibody huIgG1 (competitor)
huTIM-3/his (human) [3] = biological target: huTIM-3/his (human) (UniProt Q8TDQ0); assay: SPR (Biacore) competition; 2nd antibody injection after 1st antibody ABTIM3-hum11 (competitor)
huTIM-3/his (human) [4] = biological target: huTIM-3/his (human) (UniProt Q8TDQ0); assay: SPR (Biacore) competition; 2nd antibody injection after 1st antibody ABTIM3-hum03 (competitor)
huTIM-3/his (human) [5] = biological target: huTIM-3/his (human) (UniProt Q8TDQ0); assay: SPR (Biacore) competition; 2nd antibody injection after 1st antibody ABTIM3-hum21 (competitor)

Sequence of huTIM-3/his (human) (Q8TDQ0 22-202 limits assumed): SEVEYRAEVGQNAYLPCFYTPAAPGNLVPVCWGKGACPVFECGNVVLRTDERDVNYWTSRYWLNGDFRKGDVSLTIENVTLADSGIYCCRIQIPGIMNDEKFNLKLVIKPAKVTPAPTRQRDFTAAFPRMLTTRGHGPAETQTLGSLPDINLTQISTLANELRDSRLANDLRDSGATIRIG

Substance: huIgG1 (antibody)
- change in RU (huTIM-3/his (human) [1]): 0.27 RU
- change in RU (huTIM-3/his (human) [2]): 3.6 RU
- change in RU (huTIM-3/his (human) [3]): 3.8 RU
- change in RU (huTIM-3/his (human) [4]): 4.5 RU
- change in RU (huTIM-3/his (human) [5]): 4.5 RU
